A word on the Kd: it is the constant that tells how readily two partners part at equilibrium. Read a low Kd as tighter binding. In general, stoichiometry N refers to the number of molecules, sites or subunits per partner or assembly.

Drawing on PMC4815241 (Protein Science : A Publication of the Protein Society, 2015), this text covers Kd and stoichiometry N for one substance.

Assay [1] deals with eIF4GII_(551–745)/eIF4E complex (human | murine) (UniProt O43432). In words: ITC.
The target is the same in assay [2]. Description: SEC-MALS. For orientation: Size exclusion chromatography separates by hydrodynamic size, large species first.

eIF4GII_(551–745)/eIF4E complex (human | murine), sequence (O43432 551-745, chain 1 of 2): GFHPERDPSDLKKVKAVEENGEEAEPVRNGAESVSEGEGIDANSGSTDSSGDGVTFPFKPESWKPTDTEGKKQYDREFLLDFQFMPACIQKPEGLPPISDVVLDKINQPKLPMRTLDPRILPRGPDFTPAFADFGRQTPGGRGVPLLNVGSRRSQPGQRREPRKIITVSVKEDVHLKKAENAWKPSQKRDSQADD
eIF4GII_(551–745)/eIF4E complex (human | murine), sequence (P63073 whole entry, chain 2 of 2, further chain): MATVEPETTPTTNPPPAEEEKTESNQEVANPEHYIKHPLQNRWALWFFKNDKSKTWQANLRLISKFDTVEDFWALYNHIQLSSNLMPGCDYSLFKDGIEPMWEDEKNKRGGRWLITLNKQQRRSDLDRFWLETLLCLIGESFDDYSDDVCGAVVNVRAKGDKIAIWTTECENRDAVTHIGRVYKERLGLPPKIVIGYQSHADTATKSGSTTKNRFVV

In turn, “FMDV leader proteinase, shortened form, sLb^proC51A (FMDV residues 29–195) (enzyme)” returned a Kd in assay [1] of 0.033 µM. This substance gave a stoichiometry N in assay [2] of 1.
